Measured values: article PMC4514859

Test system: MtlR (Pseudomonas fluorescens DSM 50106)
Experiment: EMSA
Conditions: 1x shift buffer A: 10 mM Tris-HCl pH 7.0, 5% glycerol, 1 mM TCEP, 50 ug/ml salmon sperm DNA, 4% TEG, 2 mM D-mannitol (absent in buffer B), 30 min on ice, gel …

PCR 210 (wild-type PmtlE operator) showed a Kd (with D-mannitol, kdiss 1.1e-4 s-1, t1/2 112 min) of 30.8 nM and a Kd (without mannitol, kdiss 1.2e-4 s-1, t1/2 99 min) of 32.6 nM.
